{
  "source": "patent US20170369576A1",
  "about": "(UBI US, published 2017)",
  "key": {"[1]": {"target": "T1, human CD4, membrane-bound on cells (HPB-ALL cells, blood/PBMC CD4+ T cells, assay target cells) (human, UniProt P01730 26-458)", "assay": "cell-based or functional assay"}, "[2]": {"target": "T1, human CD4, membrane-bound on cells …", "assay": "FACS, fresh blood CD4+ T cells of subject F3; bound dB4 detected by goat anti-hIgG-FITC", "excerpt": "(§1) The samples were calibrated with reference beads for fluorescence reading."}, "[3]": {"target": "T1, human CD4, membrane-bound on cells …", "assay": "FACS direct binding to blood CD4+ T cells of one individual, 4°C 1 h (printed as IC50 here, as EC50 in paragraph 342)", "excerpt": "The MFI values reflect the degree of receptor occupancy, in particular when these values are normalized and expressed as % MFI."}, "[4]": {"target": "T1, human CD4, membrane-bound on cells …", "assay": "FACS direct binding to HPB-ALL cells, on ice 1 h, goat F(ab)2 anti-huIgG Fc-FITC; EC50 by % MFI, exp. 2", "description": "(§2) On V-bottomed microplates, aliquots of 2×10⁵ cells in 0.1 mL per well were added, centrifuged, and liquid discarded. […] This step was repeated one more time. The cells from the three incubations (passages) were investigated. […] The cells were washed once and the liquid discarded after centrifugation. To each well, aliquots of 200 μL of binding buffer were added and transferred to microdilution tubes for flow cytometric analysis. The binding intensity (mean fluorescence intensity, MFI), based on an inlet of 5,000 cells per sample, was read on FACS.\n(§3) The absolute MFI values were also normalized to % MFI for purpose of between-passage comparison."}, "[5]": {"target": "T1, human CD4, membrane-bound on cells …", "assay": "saturation binding to HPB-ALL cells on ice 1 h; free antibody by ELISA, bound by subtraction, curve fit; exp. 2", "description": "(§4) The resultant saturating free-vs.-bound concentration profiles were analyzed on SigmaPlot by curve-fitting based on the equation, [B]=Bmax·{[F]/([F]+Kd)}, where the respective [B] and [F] stand for the bound and free concentrations.\n(§5) The binding study was conducted at cold and/or under 0.05% azide to avoid a potential endocytosis of the ligand-receptor complexes. Incubation at room temperature or 37° C. could allow a reaction plateau to be reached sooner. […] The supernatants were collected for determination by ELISA of the free drug concentrations, and the bound fractions were obtained by subtraction from the total."}, "[6]": {"target": "T1, human CD4, membrane-bound on cells …", "assay": "saturation binding to HPB-ALL cells on ice 1 h; free antibody by ELISA, bound by subtraction, curve fit; exp. 3", "description": "as §4, §5"}, "[7]": {"target": "T1, human CD4, membrane-bound on cells …", "assay": "FACS, fresh blood CD4+ T cells, mean of six subjects; free CD4 sites left by dB4 detected by dB4C7-Alexa (250 ng/mL)"}, "[8]": {"target": "T1, human CD4, membrane-bound on cells …", "assay": "binding to human CD4 positive T cells (FIG. 21)"}, "[9]": {"target": "T1, human CD4, membrane-bound on cells …", "assay": "saturation binding to HPB-ALL cells on ice 1 h; free antibody by ELISA, bound by subtraction, curve fit; exp. 1", "description": "as §4, §5"}, "[10]": {"target": "T1, human CD4, membrane-bound on cells …", "assay": "FACS, fresh blood CD4+ T cells of subject F3; free CD4 sites left by dB4 detected by dB4C7-Alexa (250 ng/mL)"}, "[11]": {"target": "T1, human CD4, membrane-bound on cells …", "assay": "saturation binding to HPB-ALL cells on ice 1 h; free antibody by ELISA, bound by subtraction, curve fit; mean of 3", "description": "as §4, §5"}, "[12]": {"target": "T1, human CD4, membrane-bound on cells …", "assay": "FACS, fresh blood CD4+ T cells of subject M3; free CD4 sites left by dB4 detected by dB4C7-Alexa (250 ng/mL)"}, "[13]": {"target": "T1, human CD4, membrane-bound on cells …", "assay": "FACS, fresh blood CD4+ T cells of subject M2; bound dB4 detected by goat anti-hIgG-FITC", "excerpt": "as §1"}, "[14]": {"target": "T1, human CD4, membrane-bound on cells …", "assay": "FACS, fresh blood CD4+ T cells of subject F1; free CD4 sites left by dB4 detected by dB4C7-Alexa (250 ng/mL)"}, "recombinant soluble CD4": {"target": "T2, recombinant soluble CD4 (UniProt P01730 26-390, limits assumed)", "T2 construct": "also called sCD4; rsCD4", "assay": "competition ELISA on coated sCD4/p2704a mixture; inhibition of B4-biotin (10 µg/mL)"}, "[15]": {"target": "T1, human CD4, membrane-bound on cells …", "assay": "FACS, fresh blood CD4+ T cells of subject M1; bound dB4 detected by goat anti-hIgG-FITC", "excerpt": "as §1"}, "[16]": {"target": "T1, human CD4, membrane-bound on cells …", "assay": "FACS direct binding to HPB-ALL cells, on ice 1 h, goat F(ab)2 anti-huIgG Fc-FITC; EC50 by MFI, exp. 3", "description": "as §2, §3"}, "[17]": {"target": "T1, human CD4, membrane-bound on cells …", "assay": "FACS direct binding to HPB-ALL cells, on ice 1 h, goat F(ab)2 anti-huIgG Fc-FITC; EC50 by % MFI, mean of 3", "description": "as §2, §3"}, "[18]": {"target": "T1, human CD4, membrane-bound on cells …", "assay": "FACS, fresh blood CD4+ T cells of subject M3; bound dB4 detected by goat anti-hIgG-FITC", "excerpt": "as §1"}},
  "note": "Several values for one entry are separate records, joined by “and”; a condition that tells them apart may be missing. Equal entries are not always repeated.",
  "data": [
    {"binder": "mAb dB4C7 (human deimmunized, Fc-aglycosylated IgG1 derived from murine mAb B4, expressed by clone 7) (antibody, V domains shown, N-glycosylated at Asn101 in the Fv; Fc N-glycosylation site removed (N298H), treated as one molecule; also called deimmunized B4) VH: QVQLVQSGPELKKPGASVKVSCKASGYTFTDYVIHWVKQATGQGLEWIGEIYPGSGSAYSNAKFKDRVTMTADKSSNTAYMELSSLTSDDTAVYFCARRGNGTGFAYWGQGTLVTVSS VL: DIVLTQSPASLAVSLGQRATITCKAGQSVDYDGDSYMNWYQQKPGQPPKLLIYVASNLESGIPARFSGSGSGTDFTLNIHPVEENDAATYYCQQSYKDPLTFGQGTKLEIKR", "values": [
      {"measurement": "IC50 of HIV entry inhibition, pseudotype virus 92TH594 (R5/X4), U87-CD4+/CCR5+/CXCR4+ cells", "setting": "[1]", "result": 0.05, "unit": "µg/mL"},
      {"measurement": "IC50 of HIV entry inhibition, pseudotype virus HXB2 (X4), U87-CD4+/CCR5+/CXCR4+ cells", "setting": "[1]", "result": 0.4, "unit": "µg/mL"},
      {"measurement": "EC50", "setting": "[2]", "result": 0.0037, "unit": "µg/mL"},
      {"measurement": "EC50", "setting": "[3]", "result": 0.023, "unit": "µg/mL"},
      {"measurement": "EC50", "setting": "[4]", "result": 0.0457, "unit": "µg/mL"},
      {"measurement": "Kd", "setting": "[5]", "result": "0.0121 µg/mL and 0.081 nM"},
      {"measurement": "Kd", "setting": "[6]", "result": "0.0047 µg/mL and 0.031 nM"},
      {"measurement": "EC50", "setting": "[7]", "result": 0.0047, "unit": "µg/mL"},
      {"measurement": "EC50", "setting": "[8]", "result": 0.33, "unit": "µg/mL"},
      {"measurement": "Kd", "setting": "[9]", "result": "0.057 nM and 0.0086 µg/mL"},
      {"measurement": "EC50", "setting": "[10]", "result": 0.0043, "unit": "µg/mL"},
      {"measurement": "Kd", "setting": "[11]", "result": "0.0085 µg/mL and 0.056 nM"},
      {"measurement": "EC50", "setting": "[12]", "result": 0.0033, "unit": "µg/mL"},
      {"measurement": "EC50", "setting": "[13]", "result": 0.0042, "unit": "µg/mL"},
      {"measurement": "EC50", "setting": "[14]", "result": 0.0043, "unit": "µg/mL"},
      {"measurement": "IC50", "setting": "recombinant soluble CD4", "result": 8.19, "unit": "µg/mL"},
      {"measurement": "EC50", "setting": "[15]", "result": 0.0037, "unit": "µg/mL"},
      {"measurement": "EC50", "setting": "[16]", "result": 0.0407, "unit": "µg/mL"},
      {"measurement": "EC50", "setting": "[17]", "result": 0.0429, "unit": "µg/mL"},
      {"measurement": "EC50", "setting": "[18]", "result": 0.0026, "unit": "µg/mL"}
    ]}
  ]
}
